Experimental findings from article PMC6220267, “High‐affinity interactions and signal transduction between Aβ oligomers and TREM2” (EMBO Molecular Medicine, 2018) are described below.

Experiment [1] has as its target T1, Aβ42 oligomers (soluble) (UniProt P05067 672-713).
T1 construct: amyloid‐β 1-42 (Aβ42), cut product of the amyloid precursor protein APP; Oligomeric assembly; also called Aβ oligomers; oligomeric Aβ; source: oligomers prepared as described (Stine et al, 2003)
The experiment in a line: BLI; optimized assay: Protein A sensors loaded to near-saturation with soluble TREM‐Fc‐V5 proteins in PBS; ligand in serial dilution (five concentrations); dissociation in PBS; 1:1 interaction model. The settings on record: both partners purified. (In general: In BLI a coated tip is dipped into the sample, and binding shifts an interference pattern.)

Experiment [2] addresses T2, Aβ42 monomers (UniProt P05067 672-713).
T2 construct: amyloid‐β 1-42 (Aβ42), cut product of the amyloid precursor protein APP; also called monomeric Aβ; source: monomers prepared as described (Stine et al, 2003)
The experiment in a line: ELISA; plates coated overnight at 4°C with purified soluble TREM‐Fc proteins in 100 mM NaCO3 pH 11, blocked (Block Ace), incubated with Aβ42 monomers, oligomers or fibrils 1 h at room temperature; Aβ detected with 4G8‐HRP, OD450. Particulars: both partners purified. For orientation: In an ELISA, binding on a coated surface is turned into a signal by an enzyme label.

Experiment [3] deals with T3, Aβ42 fibrils (fibrillar Aβ42) (UniProt P05067 672-713).
T3 construct: amyloid‐β 1-42 (Aβ42), cut product of the amyloid precursor protein APP; Fibrillar assembly of the peptide; also called fAβ; Aβ fibrils; source: Pinotsi et al, 2016
Nature of the experiment: pull-down; Aβ42 fibril pull-down: conditioned media with 5 mM EDTA incubated with Aβ42 fibrils 1 h at room temperature, fibrils pelleted at 18,000 g, washed with PBS; Western blot with V5 antibody. Particulars: one partner purified. (In general: In western blotting, separated proteins are transferred to a membrane and probed.)

B1: soluble TREML1‐Fc (human, soluble ectodomain) (Fc fusion, UniProt Q86YW5 16-162, looked up)
chain: QGIVGSLPEVLQAPVGSSILVQCHYRLQDVKAQKVWCRFLPEGCQPLVSSAVDRRAPAGRRTFLTDLGGGLLQVEMVTLQEEDAGEYGCMVDGARGPQILHRVSLNILPPEEEEETHKIGSLAENAFSDPAGSANPLEPSQDEKSIP
notes: TREML1, human, soluble ectodomain; also called sTREML1‐Fc; source: HEK293T, transiently transfected; conditioned media; purified from conditioned media (anti-human IgG Fc agarose beads)
For B1, the binding result in experiment [1] is “binds”.

B2: soluble mouse Trem2‐Fc (soluble ectodomain) (Fc fusion, UniProt Q99NH8 19-171, looked up)
chain: LNTTVLQGMAGQSLRVSCTYDALKHWGRRKAWCRQLGEEGPCQRVVSTHGVWLLAFLKKRNGSTVIADDTLAGTVTITLKNLQAGDAGLYQCQSLRGREAEVLQKVLVEVLEDPLDDQDAGDLWVPEESSSFEGAQVEHSTSRNQETSFPPTS
notes: Trem2, mouse, soluble ectodomain; also called sTrem2‐Fc; sTrem2‐FC; source: HEK293T, transiently transfected; conditioned media; purified from conditioned media (anti-human IgG Fc agarose beads)
As to B2, the binding result in experiment [2], in experiment [1] and in experiment [3] was “binds” each time.

B3: soluble mouse Treml1‐Fc (soluble ectodomain) (Fc fusion, UniProt Q8K558 21-175, looked up)
chain: DSHPEVLQAPVGSSILVQCHYRLQDVRALKVWCQFLQEGCHPLVTSAVDRRAPGNGRIFLTDLGGGLLQVEMVTLQEEDTGEYGCVVEGAAGPQTLHRVSLLVLPPVPGPREGEEAEDEKETYRIGTGSLLEDPSLDPSASAGPHEFRRRENSIP
notes: Treml1, mouse, soluble ectodomain; also called sTreml1‐Fc; source: HEK293T, transfected, purified from conditioned media (anti-human IgG Fc agarose beads)
Turning to B3, the binding result in experiment [1] was “binds”.
